Laboratory results as given in patent US20090074793A1 (published 2009).

T1: dimeric hIL-4R-mFc (human, UniProt P24394 26-232)
T1 construct: not shown: mFc (mouse Fc)
T1 sequence: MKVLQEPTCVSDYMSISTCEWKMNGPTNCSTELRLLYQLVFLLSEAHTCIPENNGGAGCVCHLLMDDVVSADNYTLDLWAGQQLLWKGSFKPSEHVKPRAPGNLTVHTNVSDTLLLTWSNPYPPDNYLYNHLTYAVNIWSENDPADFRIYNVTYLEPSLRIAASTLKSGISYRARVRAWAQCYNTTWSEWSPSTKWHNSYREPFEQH

T2: hIL-4R on engineered HK293 cells (human STAT6 and STAT6 luciferase reporter) (human, UniProt P24394 26-232)
T2 sequence: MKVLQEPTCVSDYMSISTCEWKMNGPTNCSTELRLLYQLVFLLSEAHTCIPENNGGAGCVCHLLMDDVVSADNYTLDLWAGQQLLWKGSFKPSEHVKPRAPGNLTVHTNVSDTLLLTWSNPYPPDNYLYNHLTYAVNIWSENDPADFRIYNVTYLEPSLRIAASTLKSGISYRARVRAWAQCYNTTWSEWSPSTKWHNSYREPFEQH

T3: hIL-4R-myc-myc-his (human, UniProt P24394 26-232)
T3 construct: also called hIL-4R-mmh; hIL4R-mmh; not shown: myc-myc-his tag
T3 sequence: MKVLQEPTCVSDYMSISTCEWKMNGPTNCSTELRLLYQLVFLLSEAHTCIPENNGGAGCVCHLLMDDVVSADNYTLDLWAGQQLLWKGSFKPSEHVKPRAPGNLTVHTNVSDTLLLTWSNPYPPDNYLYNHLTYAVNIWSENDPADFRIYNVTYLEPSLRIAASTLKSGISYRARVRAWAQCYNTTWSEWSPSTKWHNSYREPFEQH

T4: monomeric hIL-4R (R&D Systems) (human, UniProt P24394 26-232, limits assumed)
T4 construct: Bought protein (R&D Systems); also called human IL-4 receptor alpha
T4 sequence: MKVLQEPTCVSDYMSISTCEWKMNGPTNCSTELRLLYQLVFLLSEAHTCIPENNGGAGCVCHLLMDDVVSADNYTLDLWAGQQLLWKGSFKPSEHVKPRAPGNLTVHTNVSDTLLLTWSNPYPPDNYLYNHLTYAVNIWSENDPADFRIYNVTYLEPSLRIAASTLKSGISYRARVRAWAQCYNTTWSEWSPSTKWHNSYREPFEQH

T5: mfIL-4R of the cellular bioassay (monkey (Macaca fascicularis), UniProt P24394 26-231 (human entry))
T5 chain: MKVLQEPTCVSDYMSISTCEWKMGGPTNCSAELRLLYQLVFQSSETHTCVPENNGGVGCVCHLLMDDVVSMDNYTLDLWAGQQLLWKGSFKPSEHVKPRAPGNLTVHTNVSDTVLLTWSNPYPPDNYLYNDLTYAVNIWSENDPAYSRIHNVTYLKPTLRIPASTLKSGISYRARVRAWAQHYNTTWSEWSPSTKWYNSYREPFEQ


Key:
dimeric hIL-4R-mFc [1] = biological target: T1, dimeric hIL-4R-mFc; assay: ELISA-based solution competition, 25 pM hIL-4R-mFc, free receptor on biotin-hIL4 plate
Protocol: (§1) Antibody-antigen binding affinity was also assessed using an ELISA-based solution competition assay. Briefly, a 96-well MAXISORP™ plate was first coated with 5 μg/ml avidin overnight followed by BSA blocking for 1 hr. […] The plate was used to measure either free hIL-4R-mFc (dimeric hIL-4R) or free hIL-4R-myc-myc-his (hIL4R-mmh, monomeric hIL4R) in the antibody titration sample solutions. […] After 1 hr binding, the plate was washed and bound hIL-4R-mFc was detected using either an HRP-conjugated mouse anti-mFc polyclonal antibody or an HRP-conjugated goat anti-myc polyclonal antibodies. IC₅₀ values were determined (Table 2).

dimeric hIL-4R-mFc [2] = biological target: T1, dimeric hIL-4R-mFc; assay: SPR (BIACORE 2000), antibody captured on anti-hFc, dimeric hIL-4R-mFc, 25° C.
Protocol: (§2) Briefly, antibody was captured on a goat anti-hFc polyclonal antibody surface created through direct coupling to a BIACORE™ chip to form a captured antibody surface. Various concentrations (ranging from 50 nM to 12.5 nM) of monomeric hIL-4R (R&D Systems) or dimeric hIL-4R-mFc were injected over the captured antibody surface at 10 μl/min for 2.5 min at either 25° C. or 37° C. Binding of antigen to antibody and dissociation of the bound complex, were monitored in real time. Equilibrium dissociation constants (KD) and dissociation rate constants were ascertained by performing kinetic analysis using BIA evaluation software. BIA evaluation software was also used to calculate the half-life of antigen/antibody complex dissociation (T_{1/2}). […] Control: a fully human anti-IL-4R antibody (U.S. Pat. No. 7,186, 809; SEQ ID NOs:10 and 12).

dimeric hIL-4R-mFc [3] = biological target: T1, dimeric hIL-4R-mFc; assay: SPR (BIACORE 2000), antibody captured on anti-hFc, dimeric hIL-4R-mFc, 37° C.
Protocol: as §2

[4] = biological target: T2, hIL-4R on engineered HK293 cells (human …); assay: cell-based or functional assay
hIL-4R-myc-myc-his = biological target: T3, hIL-4R-myc-myc-his; assay: ELISA-based solution competition, 200 pM hIL-4R-mmh, free receptor on biotin-hIL4 plate
Protocol: as §1

[5] = biological target: T4, monomeric hIL-4R (R&D Systems); assay: SPR (BIACORE 2000), antibody captured on anti-hFc, monomeric hIL-4R, 37° C.
Protocol: as §2

[6] = biological target: T4, monomeric hIL-4R (R&D Systems); assay: SPR (BIACORE 2000), antibody captured on anti-hFc, monomeric hIL-4R, 25° C.
Protocol: as §2

[7] = biological target: T5, mfIL-4R of the cellular bioassay; assay: cell-based or functional assay

IC50 (dimeric hIL-4R-mFc [1]) [nM] | Kd (dimeric hIL-4R-mFc [2]) [nM] | T1/2 (dimeric hIL-4R-mFc [2]) [h] | Kd (dimeric hIL-4R-mFc [3]) [nM] | T1/2 (dimeric hIL-4R-mFc [3]) [h] | IC50 (pM), STAT6 luciferase bioassay, 10 pM hIL-4 [4] [pM] | IC50 (pM), STAT6 luciferase bioassay, 40 pM hIL-13 [4] [pM] | IC50 (hIL-4R-myc-myc-his) [nM] | Kd [5] [nM] | T1/2 [5] [h] | Kd [6] [nM] | T1/2 [6] [h] | IC50, bioassay in the presence of 360 fM mfIL-4 [7] [nM] | Binder
0.04 | 0.302 | 2.6 | 0.314 | 1.93 | 98 | 86 | 0.09 | 0.437 | 0.817 | 0.274 | 2.18 | – | H4H095P (antibody, V domains shown, Human anti-hIL-4R antibody captured via anti-hFc) VH: QVQLVESGGGVVQPGRSLRLSCAASGFTFRSYGMHWVRQAPGKGLEWVAVISYDGSNKYYIDSVKGRFTISRDNSKNTLNLQMNSLRLEDTAVYYCAKEGRGGFDYWGQGTLVTVSS VL: DIQMTQSPSSLSASVGDRVTITCRASQVINNYLAWFQQKPGKVPKSLIHAASSLQSGVPSKFSGSGSGTDFTLTISSLQPEDFATYYCQQYNSHPWTFGQGTKVEIK
0.0096 | – | 4.08 | 0.0381 | 2.72 | 25 | 19 | 0.08 | 0.183 | 1.45 | 0.048 | 6.02 | – | H4H083P (antibody, V domains shown, Human anti-hIL-4R antibody captured via anti-hFc) VH: EVQLVESGGGLVQPGRSLRLSCEASGFTFDDYAMHWVRQAPGKGLEWVSGLSRTSVSIGYADSVKGRFTISRDNAKNSLYLEMNSLRPEDTALYYCAKWGTRGYFDYWGQGTLVTVSS VL: DIQMTQSPSSVSASVGDRVTITCRASQDISIWLAWYQQSPGKAPKLLINVASRLQSGVPSRFSGSGSGTDFTLTINSLQPEDFVTYYCQQANSFPITFGQGTRLEIK
– | – | – | – | – | 27 | 25 | – | – | – | – | – | 150 | H4H098P (antibody, V domains shown) VH: EVQLVESGGGLEQPGGSLRLSCAGSGFTFRDYAMTWVRQAPGKGLEWVSSISGSGGNTYYADSVKGRFTISRDNSKNTLYLQMNSLRAEDTAVYYCAKDRLSITIRPRYYGLDVWGQGTTVTVS VL: DIVMTQSPLSLPVTPGEPASISCRSSQSLLYSIGYNYLDWYLQKSGQSPQLLIYLGSNRASGVPDRFSGSGSGTDFTLKISRVEAEDVGFYYCMQALQTPYTFGQGTKLEIK
